This note sets out measurements from patent US20140087995A1 (published 2014).

First the molecules themselves.
T1: human calcitonin receptor (human, UniProt P30988 25-474)
T1 sequence (looked up): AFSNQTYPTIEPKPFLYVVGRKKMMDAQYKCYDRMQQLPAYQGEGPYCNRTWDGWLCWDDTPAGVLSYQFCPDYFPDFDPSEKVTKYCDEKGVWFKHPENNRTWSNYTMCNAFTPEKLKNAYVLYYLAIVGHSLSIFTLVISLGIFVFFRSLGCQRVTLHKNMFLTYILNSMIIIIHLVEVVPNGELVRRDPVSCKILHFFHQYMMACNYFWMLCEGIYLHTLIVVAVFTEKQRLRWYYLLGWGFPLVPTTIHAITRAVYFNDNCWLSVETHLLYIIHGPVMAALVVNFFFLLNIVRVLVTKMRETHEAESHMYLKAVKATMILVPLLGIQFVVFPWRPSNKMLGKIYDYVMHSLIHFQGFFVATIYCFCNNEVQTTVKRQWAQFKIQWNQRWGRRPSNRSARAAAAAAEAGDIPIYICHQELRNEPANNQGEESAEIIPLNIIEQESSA

T2: human amylin receptor (amylin 3(a) receptor: human calcitonin receptor with RAMP-3) (human, UniProt P30988 25-474; O60896 24-148)
T2 sequence (looked up) 1: T1 sequence (looked up)
T2 sequence (looked up) 2: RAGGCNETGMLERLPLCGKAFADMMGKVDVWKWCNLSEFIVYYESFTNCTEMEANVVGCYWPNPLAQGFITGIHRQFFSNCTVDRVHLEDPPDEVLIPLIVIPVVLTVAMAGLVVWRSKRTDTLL

B1: N^α1-[(4S)-4-carboxy-4-(19-carboxynonadecanoylamino)butanoyl]-[Arg17,Pro21,Pro27,Pro34,Glu35]-h-amylin (peptide)
peptide: {C20 diacid-γGlu}-KCNTATCATQRLANFLRHSSPNFGAIPSSTNVGPETY-NH2
modifications: disulfide 2-7
SMILES: CC[C@H](C)[C@H](NC(=O)[C@H](C)NC(=O)CNC(=O)[C@H](Cc1ccccc1)NC(=O)[C@H](CC(N)=O)NC(=O)[C@@H]1CCCN1C(=O)[C@H](CO)NC(=O)[C@H](CO)NC(=O)[C@H](Cc1c[nH]cn1)NC(=O)[C@H](CCCNC(=N)N)NC(=O)[C@H](CC(C)C)NC(=O)[C@H](Cc1ccccc1)NC(=O)[C@H](CC(N)=O)NC(=O)[C@H](C)NC(=O)[C@H](CC(C)C)NC(=O)[C@H](CCCNC(=N)N)NC(=O)[C@H](CCC(N)=O)NC(=O)[C@@H](NC(=O)[C@H](C)NC(=O)[C@@H]1CSSC[C@H](NC(=O)[C@H](CCCCN)NC(=O)CC[C@H](NC(=O)CCCCCCCCCCCCCCCCCCC(=O)O)C(=O)O)C(=O)N[C@@H](CC(N)=O)C(=O)N[C@@H]([C@@H](C)O)C(=O)N[C@@H](C)C(=O)N[C@@H]([C@@H](C)O)C(=O)N1)[C@@H](C)O)C(=O)N1CCC[C@H]1C(=O)N[C@@H](CO)C(=O)N[C@@H](CO)C(=O)N[C@H](C(=O)N[C@@H](CC(N)=O)C(=O)N[C@H](C(=O)NCC(=O)N1CCC[C@H]1C(=O)N[C@@H](CCC(=O)O)C(=O)N[C@H](C(=O)N[C@@H](Cc1ccc(O)cc1)C(N)=O)[C@@H](C)O)C(C)C)[C@@H](C)O
notes: also called compound 29
B2: N^α1-[(4S)-4-carboxy-4-(19-carboxynonadecanoylamino)butanoyl]-[Glu14,Arg17,Pro21,Pro27,Asp35,Pro37]-h-amylin (peptide)
peptide: {C20 diacid-γGlu}-KCNTATCATQRLAEFLRHSSPNFGAIPSSTNVGSDTP-NH2
modifications: disulfide 2-7
SMILES: CC[C@H](C)[C@H](NC(=O)[C@H](C)NC(=O)CNC(=O)[C@H](Cc1ccccc1)NC(=O)[C@H](CC(N)=O)NC(=O)[C@@H]1CCCN1C(=O)[C@H](CO)NC(=O)[C@H](CO)NC(=O)[C@H](Cc1c[nH]cn1)NC(=O)[C@H](CCCNC(=N)N)NC(=O)[C@H](CC(C)C)NC(=O)[C@H](Cc1ccccc1)NC(=O)[C@H](CCC(=O)O)NC(=O)[C@H](C)NC(=O)[C@H](CC(C)C)NC(=O)[C@H](CCCNC(=N)N)NC(=O)[C@H](CCC(N)=O)NC(=O)[C@@H](NC(=O)[C@H](C)NC(=O)[C@@H]1CSSC[C@H](NC(=O)[C@H](CCCCN)NC(=O)CC[C@H](NC(=O)CCCCCCCCCCCCCCCCCCC(=O)O)C(=O)O)C(=O)N[C@@H](CC(N)=O)C(=O)N[C@@H]([C@@H](C)O)C(=O)N[C@@H](C)C(=O)N[C@@H]([C@@H](C)O)C(=O)N1)[C@@H](C)O)C(=O)N1CCC[C@H]1C(=O)N[C@@H](CO)C(=O)N[C@@H](CO)C(=O)N[C@H](C(=O)N[C@@H](CC(N)=O)C(=O)N[C@H](C(=O)NCC(=O)N[C@@H](CO)C(=O)N[C@@H](CC(=O)O)C(=O)N[C@H](C(=O)N1CCC[C@H]1C(N)=O)[C@@H](C)O)C(C)C)[C@@H](C)O
notes: also called compound 11
B3: N^α1-[(4S)-4-carboxy-4-(19-carboxynonadecanoylamino)butanoyl]-[Asp14,Arg17,Pro21,Pro27,Pro37]-h-amylin (peptide)
peptide: {C20 diacid-γGlu}-KCNTATCATQRLADFLRHSSPNFGAIPSSTNVGSNTP-NH2
modifications: disulfide 2-7
SMILES: CC[C@H](C)[C@H](NC(=O)[C@H](C)NC(=O)CNC(=O)[C@H](Cc1ccccc1)NC(=O)[C@H](CC(N)=O)NC(=O)[C@@H]1CCCN1C(=O)[C@H](CO)NC(=O)[C@H](CO)NC(=O)[C@H](Cc1c[nH]cn1)NC(=O)[C@H](CCCNC(=N)N)NC(=O)[C@H](CC(C)C)NC(=O)[C@H](Cc1ccccc1)NC(=O)[C@H](CC(=O)O)NC(=O)[C@H](C)NC(=O)[C@H](CC(C)C)NC(=O)[C@H](CCCNC(=N)N)NC(=O)[C@H](CCC(N)=O)NC(=O)[C@@H](NC(=O)[C@H](C)NC(=O)[C@@H]1CSSC[C@H](NC(=O)[C@H](CCCCN)NC(=O)CC[C@H](NC(=O)CCCCCCCCCCCCCCCCCCC(=O)O)C(=O)O)C(=O)N[C@@H](CC(N)=O)C(=O)N[C@@H]([C@@H](C)O)C(=O)N[C@@H](C)C(=O)N[C@@H]([C@@H](C)O)C(=O)N1)[C@@H](C)O)C(=O)N1CCC[C@H]1C(=O)N[C@@H](CO)C(=O)N[C@@H](CO)C(=O)N[C@H](C(=O)N[C@@H](CC(N)=O)C(=O)N[C@H](C(=O)NCC(=O)N[C@@H](CO)C(=O)N[C@@H](CC(N)=O)C(=O)N[C@H](C(=O)N1CCC[C@H]1C(N)=O)[C@@H](C)O)C(C)C)[C@@H](C)O
notes: also called compound 10
B4: N^α1-[(4S)-4-carboxy-4-(19-carboxynonadecanoylamino)butanoyl]-[Glu14,Arg17,Pro21,Pro27,His35]-h-amylin (peptide)
peptide: {C20 diacid-γGlu}-KCNTATCATQRLAEFLRHSSPNFGAIPSSTNVGSHTY-NH2
modifications: disulfide 2-7
SMILES: CC[C@H](C)[C@H](NC(=O)[C@H](C)NC(=O)CNC(=O)[C@H](Cc1ccccc1)NC(=O)[C@H](CC(N)=O)NC(=O)[C@@H]1CCCN1C(=O)[C@H](CO)NC(=O)[C@H](CO)NC(=O)[C@H](Cc1c[nH]cn1)NC(=O)[C@H](CCCNC(=N)N)NC(=O)[C@H](CC(C)C)NC(=O)[C@H](Cc1ccccc1)NC(=O)[C@H](CCC(=O)O)NC(=O)[C@H](C)NC(=O)[C@H](CC(C)C)NC(=O)[C@H](CCCNC(=N)N)NC(=O)[C@H](CCC(N)=O)NC(=O)[C@@H](NC(=O)[C@H](C)NC(=O)[C@@H]1CSSC[C@H](NC(=O)[C@H](CCCCN)NC(=O)CC[C@H](NC(=O)CCCCCCCCCCCCCCCCCCC(=O)O)C(=O)O)C(=O)N[C@@H](CC(N)=O)C(=O)N[C@@H]([C@@H](C)O)C(=O)N[C@@H](C)C(=O)N[C@@H]([C@@H](C)O)C(=O)N1)[C@@H](C)O)C(=O)N1CCC[C@H]1C(=O)N[C@@H](CO)C(=O)N[C@@H](CO)C(=O)N[C@H](C(=O)N[C@@H](CC(N)=O)C(=O)N[C@H](C(=O)NCC(=O)N[C@@H](CO)C(=O)N[C@@H](Cc1c[nH]cn1)C(=O)N[C@H](C(=O)N[C@@H](Cc1ccc(O)cc1)C(N)=O)[C@@H](C)O)C(C)C)[C@@H](C)O
notes: also called compound 18
B5: N^α1-[(4S)-4-carboxy-4-(19-carboxynonadecanoylamino)butanoyl]-[Glu14,Arg17,Pro21,Pro27,His34]-h-amylin (peptide)
peptide: {C20 diacid-γGlu}-KCNTATCATQRLAEFLRHSSPNFGAIPSSTNVGHNTY-NH2
modifications: disulfide 2-7
SMILES: CC[C@H](C)[C@H](NC(=O)[C@H](C)NC(=O)CNC(=O)[C@H](Cc1ccccc1)NC(=O)[C@H](CC(N)=O)NC(=O)[C@@H]1CCCN1C(=O)[C@H](CO)NC(=O)[C@H](CO)NC(=O)[C@H](Cc1c[nH]cn1)NC(=O)[C@H](CCCNC(=N)N)NC(=O)[C@H](CC(C)C)NC(=O)[C@H](Cc1ccccc1)NC(=O)[C@H](CCC(=O)O)NC(=O)[C@H](C)NC(=O)[C@H](CC(C)C)NC(=O)[C@H](CCCNC(=N)N)NC(=O)[C@H](CCC(N)=O)NC(=O)[C@@H](NC(=O)[C@H](C)NC(=O)[C@@H]1CSSC[C@H](NC(=O)[C@H](CCCCN)NC(=O)CC[C@H](NC(=O)CCCCCCCCCCCCCCCCCCC(=O)O)C(=O)O)C(=O)N[C@@H](CC(N)=O)C(=O)N[C@@H]([C@@H](C)O)C(=O)N[C@@H](C)C(=O)N[C@@H]([C@@H](C)O)C(=O)N1)[C@@H](C)O)C(=O)N1CCC[C@H]1C(=O)N[C@@H](CO)C(=O)N[C@@H](CO)C(=O)N[C@H](C(=O)N[C@@H](CC(N)=O)C(=O)N[C@H](C(=O)NCC(=O)N[C@@H](Cc1c[nH]cn1)C(=O)N[C@@H](CC(N)=O)C(=O)N[C@H](C(=O)N[C@@H](Cc1ccc(O)cc1)C(N)=O)[C@@H](C)O)C(C)C)[C@@H](C)O
notes: also called compound 17
B6: N^α1-[(4S)-4-carboxy-4-(19-carboxynonadecanoylamino)butanoyl]-[Glu14,Arg17,Pro21,Pro27,Arg35]-h-amylin (peptide)
peptide: {C20 diacid-γGlu}-KCNTATCATQRLAEFLRHSSPNFGAIPSSTNVGSRTY-NH2
modifications: disulfide 2-7
SMILES: CC[C@H](C)[C@H](NC(=O)[C@H](C)NC(=O)CNC(=O)[C@H](Cc1ccccc1)NC(=O)[C@H](CC(N)=O)NC(=O)[C@@H]1CCCN1C(=O)[C@H](CO)NC(=O)[C@H](CO)NC(=O)[C@H](Cc1c[nH]cn1)NC(=O)[C@H](CCCNC(=N)N)NC(=O)[C@H](CC(C)C)NC(=O)[C@H](Cc1ccccc1)NC(=O)[C@H](CCC(=O)O)NC(=O)[C@H](C)NC(=O)[C@H](CC(C)C)NC(=O)[C@H](CCCNC(=N)N)NC(=O)[C@H](CCC(N)=O)NC(=O)[C@@H](NC(=O)[C@H](C)NC(=O)[C@@H]1CSSC[C@H](NC(=O)[C@H](CCCCN)NC(=O)CC[C@H](NC(=O)CCCCCCCCCCCCCCCCCCC(=O)O)C(=O)O)C(=O)N[C@@H](CC(N)=O)C(=O)N[C@@H]([C@@H](C)O)C(=O)N[C@@H](C)C(=O)N[C@@H]([C@@H](C)O)C(=O)N1)[C@@H](C)O)C(=O)N1CCC[C@H]1C(=O)N[C@@H](CO)C(=O)N[C@@H](CO)C(=O)N[C@H](C(=O)N[C@@H](CC(N)=O)C(=O)N[C@H](C(=O)NCC(=O)N[C@@H](CO)C(=O)N[C@@H](CCCNC(=N)N)C(=O)N[C@H](C(=O)N[C@@H](Cc1ccc(O)cc1)C(N)=O)[C@@H](C)O)C(C)C)[C@@H](C)O
notes: also called compound 16

Numbered stars: 1 amine (or outer) side, 2 acyl side, 3 side chain; on linkers, the order of the positions; unused ones are H or OH. Bridge positions count the residues as written; N and C are the ends. * marks the point of attachment. C20 diacid = O=C(O)CCCCCCCCCCCCCCCCCCC(=O)*; γGlu = O=C(O)[C@H](CCC(=O)[*:2])N[*:1]

One assay concerns the target T1, human calcitonin receptor. Kind of assay: cell-based or functional assay.
Turning to B1, the “Ratio hCT/hAmylin funct.” value worked out at 8.7 and the “hCTR funct. EC50” value was found to be 0.857 nM.

For B2, the “Ratio hCT/hAmylin funct.” value was found to be 0.9 and the “hCTR funct. EC50” value is 0.112 nM.

As for B3, the “Ratio hCT/hAmylin funct.” value came out at 1 and the “hCTR funct. EC50” value stood at 0.07 nM.

For the molecule B4, the “Ratio hCT/hAmylin funct.” value amounted to 4.8 and the “hCTR funct. EC50” value worked out at 0.742 nM.

Turning to B5, the “Ratio hCT/hAmylin funct.” value came to 8.8.

In the case of B6, the “Ratio hCT/hAmylin funct.” value turned out to be 6.1 and the “hCTR funct. EC50” value was 2.21 nM.

The target of a further assay is T2, human amylin receptor (amylin 3(a) …). Kind of assay: cell-based or functional assay.
Regarding B1, the “hAmylin-R funct. EC50” value came to 0.099 nM.

On to B2, for which the “hAmylin-R funct. EC50” value came to 0.12 nM.

In the case of B3, the “hAmylin-R funct. EC50” value stood at 0.072 nM.

On to B4, for which the “hAmylin-R funct. EC50” value came out at 0.154 nM.

Regarding B5, the “hAmylin-R funct. EC50” value is 0.268 nM.

Take B6: the “hAmylin-R funct. EC50” value came out at 0.363 nM.
